Source: US20240117061A1 (WUHAN YZY BIOPHARMA, published 2024)

Legend:
[1] = biological target: T1, recombinant human BCMA-his fusion protein (ACRO Biosystem, Cat. No. BCA-H522y) (human, UniProt Q02223 1-54); assay: competitive ELISA, coated huBCMA-his, competitor 83A10-biotin, antibody at 7 µg/mL
T1 construct: extracellular domain; Bought protein; also called huBCMA-his; hu BCMA-his; not shown: His tag
T1 sequence (looked up): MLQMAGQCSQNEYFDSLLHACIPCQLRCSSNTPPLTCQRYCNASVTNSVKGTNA

[2] = biological target: T1, recombinant human BCMA-his fusion …; assay: SPR (Biacore T200), anti-His capture on CM5, 1:1 fit
Procedure: In this example, the antigen-antibody binding kinetics and affinity were determined by the BIACORE method.
Procedures: The anti-histidine antibody (GE, His capture Kit, Cat. No. 28995056) was conjugated to the Sereis S Sensor Chip CMS to capture the test articles, thus acquiring the binding kinetic and affinity data of the antigen, as an analyte, to the test articles. The initial concentration for detecting the binding of the antigen and the test articles was 10 nM. […] The Start up flushing process (1×HBS-EP+buffer) was performed at least thrice before loading to equilibrate the system. The association and dissociation tendencies between the antigen and the test articles were detected. When the dissociation was completed, a regeneration reagent was loaded for regeneration before the detection of the next concentration was performed. After the detection was finished, the data were fitted by using a 1:1 Binding fitting mode in data analysis software (Biacore T200 Evaluation Software).

[3] = biological target: T1, recombinant human BCMA-his fusion …; assay: ELISA, coated antigen
Procedure: Procedures: huBCMA-his and cynoBCMA-his antigens were prepared into 0.5 μg/mL coating solutions with PBS (pH 7.4). The coating solutions were added to a microplate at 100 μL/well and incubated at 4° C. overnight. The residual coating solution was discarded before 3% BSA was added at 300 μL/well, and the plate was blocked for 3 h at room temperature. The microplate was washed once with PB ST at 300 The stock humanized monoclonal antibody solutions were serially 3-fold diluted to the 11th concentration. The dilutions were added to the microplate at 100 μL/well. After a 1-h incubation at room temperature, the microplate was washed thrice with PBST at 300 The HRP-conjugated 6*His, His-Tag antibody was 25,000-fold diluted with 1% BSA-PBST and added at 100 After another 1-h incubation at room temperature, the microplate was washed thrice with PB ST at 300 μL/well and dried. The TMB chromogenic solution was added at 100 μL. After a 5-min reaction at room temperature, 2 M H2504 was added at 100 μL/well to terminate the reaction. The microplate was placed on a microplate reader (Molecular Devices, SPECTRA Max plus 384) and the absorbance OD450 value was read at 450 nm wavelength.

[4] = biological target: T1, recombinant human BCMA-his fusion …; assay: competitive ELISA, coated huBCMA-his, competitor APRIL-biotin
Procedure: (§1) The 96-well microplate was treated with 100 μL of 0.5 μg/mL huBCMA-his in PBS and incubated overnight at 4° C. The plate was then washed thrice with PBS washing buffer containing 0.1% of Tween-20 and blocked with 300 μL of PBS containing 1% of BSA for 2 h. 100 μL of each BCMA antibody was added to the plate. […] The plate was incubated at 37° C. for 1 h, and unbound secondary antibody was washed with PBS washing buffer containing 0.1% of Tween-20. The TMB chromogenic solution was added at 100 μL/well. After a 5-min reaction at room temperature, 2 M H₂SO₄ was added at 100 μL/well to terminate the reaction. The microplate was placed on a microplate reader (Molecular Devices, SPECTRA Max plus 384) and the absorbance OD450 value was read at 450 nm wavelength.

[5] = biological target: T2, human BCMA on cells (NCI-H929, U266B1, HEK293 huBCMA) (human, UniProt Q02223 1-184); assay: flow cytometry on NCI-H929 cells
T2 construct: whole, on cells; also called cell surface BCMA antigen
T2 sequence (looked up): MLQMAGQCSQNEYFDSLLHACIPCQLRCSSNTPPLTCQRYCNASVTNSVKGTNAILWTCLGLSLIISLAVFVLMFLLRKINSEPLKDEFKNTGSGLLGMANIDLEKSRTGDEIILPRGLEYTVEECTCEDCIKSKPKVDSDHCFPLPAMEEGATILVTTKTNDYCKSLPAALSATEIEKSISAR
Procedure: Procedures: The cells were resuspended in PBS, and the cell density was adjusted to 2×10^5 cells/well. Human-mouse chimeric monoclonal antibodies were added to a 96-well plate at 50 μL/well and serially 3-fold diluted from 3000 nM to the 9th concentration. The plate was incubated for 1 h at 4° C. 150 μL of precooled PBS containing 1% of FBS was added into the 96-well plate after the co-incubation with the primary antibody was finished. The mixtures were centrifuged at 300×g for 5 min and the supernatants were discarded. The above procedures were repeated once. The fluorescent secondary antibody PE anti-human IgG Fc (Biolegend, 409304) was added at 80 μL/well. The plate was incubated at 4° C. for 30 min. 150 μL of precooled PBS containing 1% of FBS was added into the 96-well plate after the co-incubation with the secondary antibody was finished. The 96-well plate was centrifuged at 300×g for 5 min and the supernatants were discarded. The above procedures were repeated once. The cells were resuspended in 100 μL of PBS containing 1% of FBS and detected on a flow cytometry (BD Accuri™ C6).

[6] = biological target: T1, recombinant human BCMA-his fusion …; assay: competitive ELISA: huBCMA-his coated, varied antibody added first, then APRIL-biotin, streptavidin-peroxidase, OD450; blocked ligand APRIL
Procedure: as §1

B1: human-mouse chimeric antibody c-mAb2 (antibody, human IgG1, V domains shown)
VH: QVQLQQSDAELVKPGTSVKISCKVSGYTFTDHTIHWMKQRPEQGLEWIGYIYPRNGNTKYNEKFKGKATLTADKSSSTAYMHLNSLTSEDSAVYFCARYDYDGYFDVWGTGTTVTVSS
VL: DVVMTQTPLSLPVSLGDQASISCRSSQSHVHSDGHTYLHWYLQKPGQSPELLIYKVSNRFSGVPDRFSGSGSGTDFTLKISRVEAEDLGVYFCSQNTHFPWTFGGGTKLEIK
notes: not shown: human IgG1 heavy chain constant region, GenBank No. AK303185.1; human kappa light chain constant region, GenBank No. MG815648.1
competition [1]: 40% | Kd [2]: 1.45 nM | koff [2]: 0.0679 s⁻¹ | kon [2]: 4.68e+07 M⁻¹ s⁻¹ | EC50 [3]: 0.0257 nM | IC50 [4]: 0.0108 µg/mL | EC50 [5]: 5.7 nM

B2: human-mouse chimeric antibody c-mAb3 (antibody, human IgG1, V domains shown)
VH: EVQLQQSGPELVKPGASVKILCKASGYTITDYNMDWVKRSHGKSLEWIGNINPHNGGSIYNQKFKGKATLTVDKSSSTAFMELRSLTSEDTAVYYCARGDATLVLDYWGQGTSLTVSS
VL: DIVLTQSPASLAVSLGQRATISCRASKSVSTSGLSYMHWYQQKPGQPPKVLIYLASNLESGVPARFSGSGSGTDFTLNIHPVEEEDAATYYCQHSRELPPTFGAGTKLELK
notes: as for B1
IC50 (read off the curve) [6]: ~0.4 µg/mL | Kd [2]: 0.38 nM | koff [2]: 0.00178 s⁻¹ | kon [2]: 4.69e+06 M⁻¹ s⁻¹ | EC50 [3]: 0.0155 nM | IC50 [4]: > 12 µg/mL | EC50 [5]: 8.25 nM
